Experimental data published in patent US20180237497A1 (CANCER RESEARCH TECHNOLOGY, published 2018).

Tests used:
[1] = target: T1, human IGF2^1-67 (mature insulin-like growth factor 2) (human, UniProt P01344 25-91, biotinylated (site not stated) where immobilised on the chip (Tables 1-4)); test: SPR kinetic, biotin-IGF2 on chip, pH 7.4
T1 construct: mature; also called mature IGF2; biotinylated IGF2
Procedure, shortened: (§1)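 Biotinylated IGF2 captured on streptavidin chip; recombinant M6P/IGF2R domain 11 mutants (E. coli or P. pastoris) injected at 25° C in HBS-EP, pH 7.4, 40 μL min⁻¹. Kinetics fitted to 1:1 model; steady-state KD from 5 s response averages before injection end; 2-5 repeats on two chips.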

[2] = target: T1, human IGF2^1-67 (mature insulin-like …); test: SPR steady state, biotin-IGF2 on chip, pH 7.4
Procedure, shortened: as §1

[3] = target: T1, human IGF2^1-67 (mature insulin-like …); test: SPR
[4] = target: T1, human IGF2^1-67 (mature insulin-like …); test: SPR (Biacore T200, 25 °C, HBS-EP pH 7.4); ΔΔG° = RT ln(KD mutant / KD domain 11^AB3); box AB
Description: (§2) Boxes show the change in the binding free energy contribution, ΔΔGº, for the indicated mutants. The loop/s that contains the mutation/s is indicated in each box. The ΔΔGº values were calculated as ΔΔGº=ΔGº domain 11^mutant−ΔGº domain 11^AB3=RTln(KD domain 11^mutant/KD domain 11^AB3). Additive and non-additive contributions of single point mutations are shown when calculated with a box solid line and dashed line, respectively.
(§3) Final kinetic analysis of mutants by SPR was conducted using a Biacore T200 biosensor at 25° C. in either HBS-EP (10 mM HEPES pH 7.4, 150 mM NaCl, 3 mM EDTA, and 0.005% (v/v) surfactant P20) or MES-EP (20 mM MES pH 6.5, 150 mM NaCl, 3 mM EDTA, and 0.005% (v/v) surfactant P20) at a flow-rate of 40 μL min⁻¹. […] This interaction was also analysed by immobilizing the Fc-domain 11^AB5 and Fc-domain 11^AB5-RHH (or Fc-domain 11^I1572A as control) by Human Antibody Capture (monoclonal mouse anti-human IgG antibody immobilised on a CM5 chip by amine coupling, GE Healthcare) with and without human IgG1 Fc fragment (Bethyl Laboratories, UK) in the control flow cell. […] Steady state affinities were determined using the kinetic data, taking the response average at 5 seconds before injection end and for 5 seconds average.

[5] = target: T1, human IGF2^1-67 (mature insulin-like …); test: SPR kinetic, biotin-IGF2 on chip, pH 7.4; remark: listed apart in the source
Procedure, shortened: (§4)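 Biacore SPR at 25 °C in HBS-EP pH 7.4 or MES-EP pH 6.5, flow 40 μL/min; ~50 RU biotin-IGF2:biotin-ubiquitin (1:8) on streptavidin chip, or Fc-domain 11 captured via anti-human IgG. Kinetics fitted to 1:1 model; steady-state affinity from response averaged 5 s before injection end.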

[6] = target: T1, human IGF2^1-67 (mature insulin-like …); test: SPR steady state, biotin-IGF2 on chip, pH 7.4; remark: listed apart in the source
Procedure, shortened: as §4

[7] = target: T1, human IGF2^1-67 (mature insulin-like …); test: SPR kinetic, biotin-IGF2 on chip, pH 6.5
Description: Measurements were carried out at 25° C. in MES-EP buffer, 20 mM MES pH 6.5, 150 mM NaCl, 3 mM EDTA, and 0.005% (v/v) surfactant P20). Data for KD expressed as mean of each experiment, and means of kon and koff are shown.
(§5) Final kinetic analysis of mutants by SPR was conducted using a Biacore T200 biosensor at 25° C. in either HBS-EP (10 mM HEPES pH 7.4, 150 mM NaCl, 3 mM EDTA, and 0.005% (v/v) surfactant P20) or MES-EP (20 mM MES pH 6.5, 150 mM NaCl, 3 mM EDTA, and 0.005% (v/v) surfactant P20) at a flow-rate of 40 μL min⁻¹. […] For the analysis of the Fc-domain 11^AB5 interaction, approximately 50 RU of a biotinylated IGF2:biotinylated ubiquitin mixture (1:8 proportion) was immobilized on the CM5-streptavidin chip. This interaction was also analysed by immobilizing the Fc-domain 11^AB5 and Fc-domain 11^AB5-RHH (or Fc-domain 11^I1572A as control) by Human Antibody Capture (monoclonal mouse anti-human IgG antibody immobilised on a CM5 chip by amine coupling, GE Healthcare) with and without human IgG1 Fc fragment (Bethyl Laboratories, UK) in the control flow cell. […] T200 BiaEvaluation software (GE Healthcare) was used to fit the resulting curves according to a 1:1 binding model. Steady state affinities were determined using the kinetic data, taking the response average at 5 seconds before injection end and for 5 seconds average. Thermodynamic data was performed across the temperature range of 10° C. to 30° C., van't Hoff and Erying plots generated and ΔH, −TΔS and ΔG values determined as previously described.

[8] = target: T1, human IGF2^1-67 (mature insulin-like …); test: SPR (Biacore T200, 25 °C, HBS-EP pH 7.4); ΔΔG° = RT ln(KD mutant / KD domain 11^AB3); box AB+CD+FG+FG, dashed outline
Description: as §2, §3

[9] = target: T1, human IGF2^1-67 (mature insulin-like …); test: SPR (Biacore T200, 25 °C, HBS-EP pH 7.4); ΔΔG° = RT ln(KD mutant / KD domain 11^AB3); box AB+FG+FG, solid outline
Description: as §2, §3

[10] = target: T1, human IGF2^1-67 (mature insulin-like …); test: SPR (Biacore T200, 25 °C, HBS-EP pH 7.4); ΔΔG° = RT ln(KD mutant / KD domain 11^AB3); box AB+CD+FG+FG, solid outline
Description: as §2, §3

[11] = target: T1, human IGF2^1-67 (mature insulin-like …); test: SPR, biotin-IGF2 on chip, lower pH (6.5); reference domain 11^WT
Description: as §5

[12] = target: T1, human IGF2^1-67 (mature insulin-like …); test: SPR (Biacore T200, 25 °C, HBS-EP pH 7.4); ΔΔG° = RT ln(KD mutant / KD domain 11^AB3); box AB+CD+FG+FG
Description: as §2, §3

[13] = target: T1, human IGF2^1-67 (mature insulin-like …); test: SPR, pH 7.4; pH 7.4
Description: as §5

T1 sequence (P01344 25-91): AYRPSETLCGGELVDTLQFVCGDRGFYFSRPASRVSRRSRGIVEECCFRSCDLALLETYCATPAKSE

Row | Kd [1] | koff [1] | kon [1] | Kd [2] | fold higher affinity than domain 11^WT [3] | ΔΔG [4] | Kd [5] | koff [5] | kon [5] | Kd [6] | Kd [7] | koff [7] | kon [7] | ΔΔG [8] | ΔΔG [9] | ΔΔG [10] | fold improved overall affinity compared to domain 11^WT [11] | ΔΔG [12] | Kd [13] | Binder
1 | – | – | – | – | – | – | 0.65 nM | 0.0038 s⁻¹ | 5.9e+06 M⁻¹ s⁻¹ | 2 nM | 0.71 nM | 0.003 s⁻¹ | 4.41e+06 M⁻¹ s⁻¹ | – | – | -1.87 kcal/mol | – | – | – | domain 11^AB5 Q1569R P1597H S1602H (receptor, See m5) MKSNEHDDCQVTNPSTGHLFDLSSLSGRAGFTAAYAKGWGVYMSICGENENCPPGVGACFGRTRISVGKANKRLRYVDQVLQLVYKDGSHCPSKHGLSYKSVISFVCRPEAGPTNRPMLISLDKQTCTLFFSWHTPLACEQATECSV
2 | – | – | – | – | – | – | 0.62 nM | 0.0108 s⁻¹ | 1.75e+07 M⁻¹ s⁻¹ | 1.31 nM | 0.43 nM | 0.0087 s⁻¹ | 2.43e+07 M⁻¹ s⁻¹ | – | – | – | 100 fold | -1.9 kcal/mol | 0.78 nM | domain 11^AB3 Q1569R P1597H S1602H G1603K (receptor, See m5) MKSNEHDDCQVTNPSTGHLFDLSSLSGRAGFTAAYSKSGVVYMSICGENENCPPGVGACFGRTRISVGKANKRLRYVDQVLQLVYKDGSHCPSKHKLSYKSVISFVCRPEAGPTNRPMLISLDKQTCTLFFSWHTPLACEQATECSV

The next lines start with the binder.

Row | Binder | Kd [1] | koff [1] | kon [1] | Kd [2] | fold higher affinity than domain 11^WT [3] | ΔΔG [4] | Kd [5] | koff [5] | kon [5] | Kd [6] | Kd [7] | koff [7] | kon [7] | ΔΔG [8] | ΔΔG [9] | ΔΔG [10] | fold improved overall affinity compared to domain 11^WT [11] | ΔΔG [12] | Kd [13]
3 | IGF2R domain 11^AB5 (receptor, His6-tagged soluble domain 11; also called 1542YAKGWG1547) MKSNEHDDCQVTNPSTGHLFDLSSLSGRAGFTAAYAKGWGVYMSICGENENCPPGVGACFGQTRISVGKANKRLRYVDQVLQLVYKDGSPCPSKSGLSYKSVISFVCRPEAGPTNRPMLISLDKQTCTLFFSWHTPLACEQATECSV | 5.07 nM | 0.0208 s⁻¹ | 4.21e+06 M⁻¹ s⁻¹ | 6.44 nM | 10 fold | -0.65 kcal/mol | 5.07 nM | 0.0208 s⁻¹ | 4.21e+06 M⁻¹ s⁻¹ | 6.44 nM | 4.38 nM | 0.018 s⁻¹ | 4.17e+06 M⁻¹ s⁻¹ | – | – | – | – | – | –
4 | domain 11^AB5 Q1569R P1597H G1603K (receptor, See m5) MKSNEHDDCQVTNPSTGHLFDLSSLSGRAGFTAAYAKGWGVYMSICGENENCPPGVGACFGRTRISVGKANKRLRYVDQVLQLVYKDGSHCPSKSKLSYKSVISFVCRPEAGPTNRPMLISLDKQTCTLFFSWHTPLACEQATECSV | – | – | – | – | – | – | 0.87 nM | 0.0058 s⁻¹ | 6.67e+06 M⁻¹ s⁻¹ | 2.01 nM | 0.69 nM | 0.0051 s⁻¹ | 7.54e+06 M⁻¹ s⁻¹ | -1.7 kcal/mol | – | – | – | – | –
5 | domain 11^AB5 P1597H S1602H (receptor, See m5) MKSNEHDDCQVTNPSTGHLFDLSSLSGRAGFTAAYAKGWGVYMSICGENENCPPGVGACFGQTRISVGKANKRLRYVDQVLQLVYKDGSHCPSKHGLSYKSVISFVCRPEAGPTNRPMLISLDKQTCTLFFSWHTPLACEQATECSV | – | – | – | – | – | – | 1.17 nM | 0.0046 s⁻¹ | 3.5e+06 M⁻¹ s⁻¹ | 2.93 nM | 0.62 nM | 0.0029 s⁻¹ | 5.32e+06 M⁻¹ s⁻¹ | – | -1.52 kcal/mol | – | – | – | –
6 | domain 11^AB3 Q1569R P1597H S1602H (receptor, See m5) MKSNEHDDCQVTNPSTGHLFDLSSLSGRAGFTAAYSKSGVVYMSICGENENCPPGVGACFGRTRISVGKANKRLRYVDQVLQLVYKDGSHCPSKHGLSYKSVISFVCRPEAGPTNRPMLISLDKQTCTLFFSWHTPLACEQATECSV | – | – | – | – | – | – | 0.74 nM | 0.01 s⁻¹ | 1.41e+07 M⁻¹ s⁻¹ | 1.53 nM | 0.4 nM | 0.0064 s⁻¹ | 1.61e+07 M⁻¹ s⁻¹ | – | – | – | 100 fold | -1.79 kcal/mol | –
